Reference: the supplement of paper PMC10126150
± gives the standard deviation of the averaged measurements.

Tested on: ATP
Experiment: switch fluorescence ratio, 500 uM ATP over buffer (Cy3 cluster intensity, sum of 5 cycles each) (fold (ratio)); higher = stronger signal-on switching upon ATP binding; sequences stand for … in TCGTCGGCAGCGTCAGATGTGTATAAGAGACAGTTTTTTTTTTTTTTTTTTTTTTTTT…TC
Conditions: aptamer strand: ATP DNA aptamer (quencher-CACCTGGGGGAGTATTGCGGAGGAAGG + anchor), 100 nM annealed; ATP concentration: 500 uM
Summary of the method: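 The fluorescence ratio divides summed target-cycle Cy3 intensity by summed buffer-cycle Cy3 intensity for each cluster and is averaged per switch-domain sequence. Cy3-labelled switching-strand clusters on a modified Illumina MiSeq flow-cell were annealed to 100 nM quencher-labelled ATP aptamer, then imaged in selection buffer and again after 15 min with 500 uM ATP at 22 °C. Five such cycles were run, with NaOH stripping and re-annealing between them, and clusters outside 100-1000 RFU were excluded.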
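Further: ATP exposure 15 min at 22 °C before imaging.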

Sequence	switch fluorescence ratio
AATGGGTGAG	0.982 ± 0.014
AATGGTAAAC	1.04 ± 0.018
AATGGTGAAT	0.996 ± 0.03
AATGGTGCGA	0.975 ± 0.012
AATGGTGTGT	1.01 ± 0.018
AATGGTTGTG	1 ± 0.022
AATGTAAGGT	1.012 ± 0.006
AATGTACTTT	1.03 ± 0.032
AATGTATTTT	1.01 ± 0.029
AATGTCGCGA	1 ± 0.025
AATGTGCCGT	1.07 ± 0.04
AATGTGGCTA	1.01 ± 0.037
AATGTGGGTA	0.982 ± 0.015
AATGTGGTAA	0.959 ± 0.043
AATGTGGTTG	0.997 ± 0.013
AATGTGTTGT	0.998 ± 0.011
AATGTTACGC	1.02 ± 0.058
AATGTTAGGC	1.02 ± 0.034
AATGTTATAG	1.008 ± 0.00014
AATGTTATGG	0.9801 ± 0.0031
AATGTTATTG	0.99833 ± 0.00099
AATTAAGGCC	0.992 ± 0.026
AATTAATGGA	0.997 ± 0.036
AATTACCATC	1.01 ± 0.017
AATTACGGGT	1 ± 0.021

Sequence	switch fluorescence ratio
AATTACTTTA	1.03 ± 0.029
AATTAGACAG	0.9912 ± 0.0047
AATTAGAGTA	0.994 ± 0.068
AATTAGATAC	1.12 ± 0.074
AATTAGGTGC	1.14 ± 0.077
AATTAGGTGG	1.01 ± 0.039
AATTAGTGGG	0.995 ± 0.025
AATTAGTTCG	0.98 ± 0.02
AATTATGGGG	0.999 ± 0.032
AATTCAGGGG	1.07 ± 0.069
AATTCGGGGG	1.04 ± 0.054
AATTCGGGGT	1.005 ± 0.0024
AATTCGTATC	1.008 ± 0.0024
AATTCTGGAA	0.982 ± 0.011
AATTGAAAAG	0.982 ± 0.027
AATTGAGTAT	1.01 ± 0.015
AATTGCCAGA	1.02 ± 0.02
AATTGCCAGT	1.01 ± 0.018
AATTGCGGTA	0.982 ± 0.05
AATTGGAAAA	0.987 ± 0.019
AATTGGATGG	1.02 ± 0.047
AATTGGGATG	0.975 ± 0.034
AATTGGTACG	0.992 ± 0.021
AATTGGTTTT	0.982 ± 0.034
AATTGTGATG	1.01 ± 0.02

Sequence	switch fluorescence ratio
AATTGTGTAC	1.052 ± 0.0018
AATTGTTGTT	0.998 ± 0.033
AATTGTTTCA	0.974 ± 0.016
AATTGTTTGT	0.998 ± 0.016
AATTTAAAGC	1.03 ± 0.07
AATTTAAATG	0.977 ± 0.03
AATTTAAGCG	1.01 ± 0.017
AATTTAATAT	1.01 ± 0.016
AATTTACATG	1.02 ± 0.024
AATTTACGAT	1.02 ± 0.014
AATTTACTGT	1.01 ± 0.023
AATTTATCCG	1.02 ± 0.059
AATTTATGC	0.97 ± 0.011
AATTTCATTG	0.9986 ± 0.0035
AATTTGAGAA	0.998 ± 0.029
AATTTGGCAC	1.05 ± 0.09
AATTTGGCAG	0.99 ± 0.025
AATTTGGTCC	1.04 ± 0.058
AATTTGTGCG	0.991 ± 0.012
AATTTTAGGA	0.98 ± 0.028
AATTTTATAC	1.02 ± 0.016
AATTTTATTG	0.988 ± 0.05
AATTTTCCAC	1.02 ± 0.043
AATTTTGGAC	1.01 ± 0.017
AATTTTGGGT	1 ± 0.041

Sequence	switch fluorescence ratio
AATTTTGGTT	0.99 ± 0.017
AATTTTTACT	1.05 ± 0.1
AATTTTTCGG	0.994 ± 0.042
AATTTTTGTG	0.988 ± 0.022
AATTTTTTAT	0.979 ± 0.036
AATTTTTTCC	1.41 ± 0.53
ACAAAAAGGG	1.02 ± 0.039
ACAAAAGGGG	1.16 ± 0.22
ACAAACACTT	1.158 ± 0.01
ACAAAGACCT	1.42 ± 0.031
ACAACGGGTG	2.1 ± 0.24
ACAACGGTCT	1.042 ± 0.0035
ACAAGAGGGT	1.002 ± 0.0051
ACAAGAGGTT	0.995 ± 0.018
ACAAGATACA	1.03 ± 0.021
ACAAGATTGG	1.01 ± 0.041
ACAAGGAGGT	0.983 ± 0.005
ACAAGGCAGA	1.04 ± 0.013
ACAAGGGTC	0.964 ± 0.025
ACAAGGTGAC	1.082 ± 0.0021
ACAAGTAAGC	1.048 ± 0.0067
ACAATAACAC	1.095 ± 0.0093
ACAATATAGA	1.0126 ± 8.1e-07
ACAATCGGCG	1.02 ± 0.0072
ACAATGTCT	0.996 ± 0.014

Sequence	switch fluorescence ratio
ACAATGTGGT	0.951 ± 0.018
ACAATTTATT	1.02 ± 0.051
ACACAATTTT	1.01 ± 0.026
ACACACCAGG	2.98 ± 0.18
ACACAGCGGC	1.16 ± 0.046
ACACAGGTAT	1.12 ± 0.059
ACACATCATA	1.07 ± 0.032
ACACATTGGA	1.03 ± 0.0023
ACACCCAAGT	1.21 ± 0.14
ACACCTCCAA	1.04 ± 0.027
ACACGAGGCT	1.04 ± 0.029
ACACTCACCC	1.57 ± 0.36
ACACTCATGG	1.03 ± 0.068
ACACTCATTG	1.06 ± 0.074
ACACTTTTCG	1.01 ± 0.035
ACAGAATCGA	1.02 ± 0.032
ACAGAATCGG	1.03 ± 0.018
ACAGACAATG	1.02 ± 0.045
ACAGACAGGC	1.05 ± 0.062
ACAGACTTTG	1.01 ± 0.062
ACAGAGGCAC	1.02 ± 0.062
ACAGAGGGAG	1.02 ± 0.011
ACAGATTTAG	0.972 ± 0.014
ACAGCAGGGG	1.25 ± 0.17
ACAGCTAAAA	1.02 ± 0.016

Sequence	switch fluorescence ratio
ACAGGAAAAA	0.976 ± 0.084
ACAGGAAACG	1.042 ± 0.0014
ACAGGACAGC	1.14 ± 0.049
ACAGGACGTT	1.11 ± 0.028
ACAGGAGCGT	1.1017 ± 0.00065
ACAGGAGTTT	0.999 ± 0.01
ACAGGATCCG	1.01 ± 0.00021
ACAGGCCAGC	1.01 ± 0.022
ACAGGCTCCG	1.05 ± 0.038
ACAGGGGAGT	1.03 ± 0.02
ACAGGGGGTG	1.07 ± 0.035
ACAGGGGTGG	1.02 ± 0.021
ACAGGTTAGA	1.05 ± 0.014
ACAGTAGGAA	1.08 ± 0.035
ACAGTCGTCT	0.949 ± 0.042
ACAGTCTGCG	0.962 ± 0.037
ACAGTGCATT	1.03 ± 0.025
ACAGTGTGTC	0.994 ± 0.042
ACAGTTATTA	1.03 ± 0.028
ACAGTTGGTT	0.99 ± 0.06
ACAGTTTTTT	0.98861 ± 1.6e-05
ACATAAGTG	1.02 ± 0.019
ACATAAGTGG	1.01 ± 0.011
ACATAATGTG	1.06 ± 0.013
ACATAGGGCT	0.987 ± 0.04

Sequence	switch fluorescence ratio
ACATAGTGCT	1.004 ± 0.0077
ACATATATGA	1.06 ± 0.031
ACATATGGGT	1.01 ± 0.039
ACATCAGAAT	1.01 ± 0.028
ACATCATACG	1.233 ± 0.01
ACATCCAACG	1.12 ± 0.028
ACATCCGGAC	1.343 ± 0.011
ACATCCGTCG	1.06 ± 0.022
ACATCCTACT	1.15 ± 0.041
ACATCGACTG	1.02 ± 0.048
ACATCGTGTT	0.977 ± 0.033
ACATCTCGAT	0.996 ± 0.015
ACATGAACCT	2.14 ± 0.077
ACATGACGGT	1.06 ± 0.027
ACATGCACGG	1.268 ± 0.0013
ACATGCGGTG	1.002 ± 0.0033
ACATGGCTAA	1.08 ± 0.068
ACATGGGTGG	0.962 ± 0.051
ACATGGTAGT	0.97 ± 0.041
ACATGGTTAG	0.987 ± 0.03
ACATGTCTGG	1.001 ± 0.0016
ACATGTGCGT	1.004 ± 0.01
ACATTAGTAG	1.02 ± 0.033
ACATTAGTTA	1.05 ± 0.033
ACATTATATG	1.01 ± 0.043

Sequence	switch fluorescence ratio
ACATTCGACC	1.11 ± 0.062
ACATTGGGAT	0.998 ± 0.022
ACATTGTACG	1.09 ± 0.019
ACATTTTTAG	1.01 ± 0.013
ACCAAAAATG	1.1 ± 0.13
ACCAACTCAG	1.24 ± 0.037
ACCAAGTATC	1.04 ± 0.036
ACCAAGTTCA	1.02 ± 0.014
ACCAAGTTGG	0.993 ± 0.016
ACCAGCTTTC	1.16 ± 0.015
ACCAGGACTA	1.038 ± 0.0017
ACCAGGGGGG	1.07 ± 0.058
ACCAGGTGGT	1.78 ± 1.1
ACCATAGAAT	1.009 ± 0.0094
ACCATATGGA	1.02 ± 0.064
ACCATCAAGG	0.9815 ± 0.0016
ACCATTAATT	0.991 ± 0.029
ACCATTGTGA	0.998 ± 0.014
ACCATTTGTC	1.06 ± 0.094
ACCCATGAAG	0.989 ± 0.015
ACCCGAGTTT	1 ± 0.018
ACCCGGACCT	1.34 ± 0.059
ACCCGGCTTA	1.19 ± 0.22
ACCCTAGACG	1.03 ± 0.045
ACCCTGCAGA	1.06 ± 0.0064
